Columns and labels:
[1] = system: 48-kDa fragment (aa 773-928) of pRb; test: pRb kinase assay on MCF7 cell extract bound to streptavidin-coated sepharose beads; assay type: biochemical
Protocol: In order to verify if transgenes expressed in MCF7 cells after transduction with the vectors described in Example 8 could be immobilized on streptavidin-coated sepharose bead and were enzymatically active, the MCF7 cells expressing the luciferase or the cyclin D3/CDK4 fusion protein described in the Example 14 were cultivated in 10 cm Petri dishes with 10 ml DMEM medium supplemented with 5% serum, insulin 6 ng/ml, NEAA (Gibco) 0.1 mM, Sodium pyruvate (1 mM), Penicillin (50 U/ml) and Streptomycin (50 μg/ml). The cells were rendered quiescent by incubating them for three days in phenol-free DMEM without serum and insulin, but supplemented with biotin (0.1 mM), NEAA (0.1 mM, Gibco), Sodium pyruvate (1 mM), Penicillin (50 U/ml) and Streptomycin (50 μg/ml). During the last 24 hours, fulvestrant (10 nM) was added to the culture to block estrogen receptor action. Cells were stimulated to proliferate by adding 5% serum, 6 ng/ml insulin and 100 nM β-estradiol in the culture medium for 16 hours in the continuous presence of biotin (0.1 mM). At the end of the culture, cells were washed with PBS and lysed on ice in 1 ml NP-40 lysis buffer as described in Example 10. The homogenized (glass/glass) cellular lysate was sonicated 3 times and stored at −20° C. Equal amounts of protein from the defrozen lysate were then incubated for 3 h at 4° C. under slight shaking with 5 μl of streptavidin-coated sepharose beads which had been prewashed three times with NP-40 lysis buffer without inhibitors. After 3 h, beads bound with transgene were washed three times with cold NP-40 lysis buffer without inhibitors before enzymatic activities were measured.
The pRb kinase assay was performed on the cellular extract bound to the streptavidin-coated sepharose beads as described previously (Coulonval et al., supra). […] Proteins were resolved by SDS-PAGE and transferred on PVDF membranes (Perkin Elmer) before the phosphorylation on T826 of the pRb fragment was detected using the phospho-specific anti-pRb (T826) antibody (Thermo Fisher). […]

[2] = system: 48-kDa fragment (amino acid 773-928) of pRb; test: pRb kinase assay on HEK293T cell extract bound to streptavidin-coated sepharose beads; assay type: biochemical; conditions: transiently transfected HEK293T cells, P-Rb T826 immunoblot
Protocol: In order to verify if the transgenes expressed in HEK293T cells after transient transfection could be immobilized on streptavidin-coated sepharose bead and were enzymatically active, HEK293T cells were cultivated and transfected with the indicated plasmids as described in Example 12.
After transfection, cells were washed with PBS and lysed on ice in 1 ml NP-40 lysis buffer as described in Example 11. The homogenized (glass/glass) cellular lysate was sonicated 3 times and stored at −20° C. Equal amount of protein from the defrozen lysates were then incubated for 3 h at 4° C. under slight shaking with 5 μl of streptavidin-coated sepharose beads (GE Healthcare) which had been prewashed three times with NP-40 lysis buffer without inhibitors. After 3 h, beads bound with transgene are washed three times with cold NP-40 lysis buffer without inhibitors before enzymatic activities are measured.
The pRb kinase assay was performed on the cellular extract bound to the streptavidin-coated sepharose beads as described previously (Coulonval et al., 2003, Exp. Cell Res., 291, 135-149). […] Proteins were resolved by SDS-PAGE and transferred on PVDF membranes (Perkin Elmer) before the phosphorylation on T826 of the pRb fragment was detected using the phosphor-specific pRb (T826) antibody (Thermo Fisher). […]
The pRb kinase assay was performed on the cellular extract bound to the streptavidin-coated sepharose beads (GE Healthcare) as described previously (Coulonval et al., 2003, Exp. Cell Res., 291, 135-149). […] Proteins were resolved by SDS-PAGE and transferred on low fluorescence PVDF membranes (Millipore) before the phosphorylation on T826 of the pRb fragment was detected using a phospho-specific rabbit anti-pRb (T826) antibody (Epitomics). Total GST-Rb load of the membranes was quantitated using the mouse anti-GST antibody (Pierce). […]

Row | Molecule | Rb kinase activity of the immobilized fusion protein ([1]; 16 h after serum/insulin/β-estradiol stimulation of MCF7 cells (FIG. 11B, lane 8)) | Rb kinase activity of the immobilized fusion protein ([1]; quiescent MCF7 cells (FIG. 11B, lane 7)) | Rb kinase activity of the immobilized fusion protein [2] | Rb kinase activity of the immobilized fusion protein ([2]; listed as cyclin D3/CDK4) | Rb kinase activity of the immobilized fusion protein ([1]; stable MCF7 populations cultivated with 5% serum and insulin (FIG. 16))
1 | D3L2K4: cyclin D3 and CDK4 connected by the linker L2, SEQ ID NO. 10 (protein) MELLCCEGTRHAPRAGPDPRLLGDQRVLQSLLRLEERYVPRASYFQCVQREIKPHMRKMLAYWMLEVCEEQRCEEEVFPLAMNYLDRYLSCVPTRKAQLQLLGAVCMLLASKLRETTPLTIEKLCIYTDHAVSPRQLRDWEVLVLGKLKWDLAAVIAHDFLAFILHRLSLPRDRQALVKKHAQTFLALCATDYTFAMYPPSMIATGSIGAAVQGLGACSMSGDELTELLAGITGTEVDCLRACQEQIEAALRESLREASQTSSSPAPKAPRGSSSQGPSQTSTPTDVTAIHLASKGGGGSLEVLFQPSRMATSRYEPVAEIGVGAYGTVYKARDPHSGHFVALKSVRVPNGGGGGGGLPISTVREVALLRRLEAFEHPNVVRLMDVCATSRTDREIKVTLVFEHVDQDLRTYLDKAPPPGLPAETIKDLMRQFLRGLDFLHANCIVHRDLKPENILVTSGGTVKLADFGLARIYSYQMALTPVVVTLWYRAPEVLLQSTYATPVDMWSVGCIFAEMFRRKPLFCGNSEADQLGKIFDLIGLPPEDDWPRDVSLPRGAFPPRGPRPVQSVVPEMEESGAQLLLEMLTFNPHKRISAFRALQHSYLHKDEGNPE | strongly enhanced | detectable | No difference in Rb-kinase activity | active | 
2 | D3L3K4: cyclin D3 and CDK4 connected by the Prescission-cleavable linker L3, SEQ ID NO. 79 (protein) MELLCCEGTRHAPRAGPDPRLLGDQRVLQSLLRLEERYVPRASYFQCVQREIKPHMRKMLAYWMLEVCEEQRCEEEVFPLAMNYLDRYLSCVPTRKAQLQLLGAVCMLLASKLRETTPLTIEKLCIYTDHAVSPRQLRDWEVLVLGKLKWDLAAVIAHDFLAFILHRLSLPRDRQALVKKHAQTFLALCATDYTFAMYPPSMIATGSIGAAVQGLGACSMSGDELTELLAGITGTEVDCLRACQEQIEAALRESLREASQTSSSPAPKAPRGSSSQGPSQTSTPTDVTAIHLASKGGGGSLEVLFQPSRMATSRYEPVAEIGVGAYGTVYKARDPHSGHFVALKSVRVPNGGGGGGGLPISTVREVALLRRLEAFEHPNVVRLMDVCATSRTDREIKVTLVFEHVDQDLRTYLDKAPPPGLPAETIKDLMRQFLRGLDFLHANCIVHRDLKPENILVTSGGTVKLADFGLARIYSYQMALTPVVVTLWYRAPEVLLQSTYATPVDMWSVGCIFAEMFRRKPLFCGNSEADQLGKIFDLIGLPPEDDWPRDVSLPRGAFPPRGPRPVQSVVPEMEESGAQLLLEMLTFNPHKRISAFRALQHSYLHKDEGNPE |  |  | No difference in Rb-kinase activity |  | only detected

— patent US20150299764A1, “IMMOBILISED CYCLIN-DEPENDENT KINASE 4 FUSION PROTEINS AND USES THEREOF” (UNIVERSITE LIBRE DE BRUXELLES, priority 2012, published 2015)
